Here are results for 4 substances from article PMC8801479.

One test concerns the target the GF and c-AMH. Put plainly: ELISA; c-AMH or GF captured on mAb-C1; various concentrations of AMHR2-Fc/Fc in solution; bound AMHR2-Fc/Fc detected with antihuman-Fc Ab conjugated to HRP; quadratic fit. A general note: An ELISA detects its analyte on a solid surface through an enzyme-linked reagent.
The target in test [1] is AMHR2-Fc/Fc, heterodimer of one AMHR2-Fc chain (extracellular domain of human AMHR2 fused to human IgG1 Fc) disulfide bonded to one Fc-only chain (human) (UniProt Q16671). The test is described as follows: ELISA; AMHR2-Fc/Fc (0.75 ug/ml) captured on goat antihuman Fc Ab coated on the plate; c-AMH or GF serially diluted, 2 to 4 h; bound AMH detected with biotinylated mAb-C1 (GF) or mAb-N1 (prodomain) and SA-HRP; data fit to the quadratic equation for a reversible association reaction.

Test [2] has the same target. Put plainly: ELISA; AMHR2-Fc/Fc captured on goat antihuman Fc Ab on the plate; c-AMH 0.03 to 52.83 nM; bound AMH detected with nonbiotinylated mAb-C1 or mAb-N1 and antimouse-Fc-HRP, added one by one or as a preformed complex; data fit globally to the equations of Perelson and DeLisi for ligand-induced receptor dimerization, with the quadratic equation for K_mono and Kbi; [R0] = 0.1 nM.

The target of test [3] is activin A growth factor growth factor domain (Homo sapiens) (UniProt P08476). The following applies: cited from earlier work.
Test [4] concerns the target anti-Müllerian hormone growth factor (AMH GF), the mature C-terminal domain (human) (UniProt P03971). The test is described as follows: ELISA; c-AMH diluted to 1 ng/ml (8.8 pM) in PBS with 1% BSA and 1% goat serum, 10 days at room temperature; ELISA that detects only intact complex; Kd calculated from the fraction of intact complex.
Test [5] shares this target. The test is described as follows: ELISA; AMHR2-Fc/Fc captured on goat antihuman Fc Ab on the plate; c-AMH 0.03 to 52.83 nM; bound AMH detected with nonbiotinylated mAb-C1 or mAb-N1 and antimouse-Fc-HRP, added one by one or as a preformed complex; data fit globally to the equations of Perelson and DeLisi for ligand-induced receptor dimerization, with the quadratic equation for K_mono and Kbi; [R0] = 0.1 nM.

Chain of anti-Müllerian hormone growth factor (AMH GF), the mature C-terminal domain (human) (P03971 452-560): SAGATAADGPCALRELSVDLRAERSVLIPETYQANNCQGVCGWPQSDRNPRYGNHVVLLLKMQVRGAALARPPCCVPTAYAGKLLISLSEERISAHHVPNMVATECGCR
Chain of cleaved anti-Müllerian hormone (c-AMH), the noncovalent complex of the AMH prodomain with the AMH growth factor (P03971 25-451 limits assumed): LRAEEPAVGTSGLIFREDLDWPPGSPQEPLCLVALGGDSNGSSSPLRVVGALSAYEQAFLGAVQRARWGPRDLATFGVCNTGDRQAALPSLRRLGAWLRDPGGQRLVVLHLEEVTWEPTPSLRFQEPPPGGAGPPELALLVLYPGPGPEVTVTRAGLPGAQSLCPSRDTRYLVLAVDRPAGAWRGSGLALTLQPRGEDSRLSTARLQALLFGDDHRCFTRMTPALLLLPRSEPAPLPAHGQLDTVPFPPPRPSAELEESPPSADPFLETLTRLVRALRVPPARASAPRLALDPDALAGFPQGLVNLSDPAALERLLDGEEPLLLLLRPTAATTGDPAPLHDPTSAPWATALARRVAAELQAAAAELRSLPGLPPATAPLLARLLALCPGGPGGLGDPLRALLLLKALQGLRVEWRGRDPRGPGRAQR
Chain of cleaved anti-Müllerian hormone (c-AMH), the noncovalent complex of the AMH prodomain with the AMH growth factor (P03971 452-560 limits assumed): as the sequence (P03971 452-560) above
Chain of activin A growth factor growth factor domain (Homo sapiens) (P08476 311-426): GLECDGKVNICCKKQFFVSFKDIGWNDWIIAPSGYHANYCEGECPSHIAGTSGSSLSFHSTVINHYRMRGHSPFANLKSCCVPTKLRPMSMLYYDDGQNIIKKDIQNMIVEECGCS
Chain of activin A prodomain prodomain (P08476 21-310): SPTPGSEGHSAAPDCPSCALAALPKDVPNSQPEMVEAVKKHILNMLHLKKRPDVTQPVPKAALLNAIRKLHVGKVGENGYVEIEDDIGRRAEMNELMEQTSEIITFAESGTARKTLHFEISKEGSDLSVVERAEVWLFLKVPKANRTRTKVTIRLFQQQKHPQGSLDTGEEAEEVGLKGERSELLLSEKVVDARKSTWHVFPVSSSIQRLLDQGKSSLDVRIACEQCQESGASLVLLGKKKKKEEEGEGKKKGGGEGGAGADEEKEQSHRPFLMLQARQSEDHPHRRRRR

As usually defined, the Kd is the equilibrium constant for the complex coming apart. The substance “AMHR2-Fc/Fc, heterodimer of one AMHR2-Fc chain (extracellular domain of human AMHR2 fused to human IgG1 Fc) disulfide bonded to one Fc-only chain (from UniProt Q16671 18-149; P01857 104-330) (Fc fusion)” gave a Kd with the GF and c-AMH of 3 to 4 nM.
“cleaved anti-Müllerian hormone (c-AMH), the noncovalent complex of the AMH prodomain with the AMH growth factor (from UniProt P03971 452-560)”: in test [1], the Kd stood at 0.3 nM. Further, in test [2], the K1 (dissociation constant of the initial monovalent binding step; fit of Figure 5C) amounted to 1.1 nM; the K1 (dissociation constant of the initial monovalent binding step; fit of Figure 5D) amounted to 1.1 nM; the [CT]/[R0], bound AMH without prodomain, estimate of [RLR]/[R0], at 0.03 nM c-AMH was 0.031; the [CT]/[R0], bound AMH without prodomain, estimate of [RLR]/[R0], at 0.05 nM c-AMH is 0.067. Besides, in test [2], the [CT]/[R0], bound AMH without prodomain, estimate of [RLR]/[R0], at 0.10 nM c-AMH was 0.091; the [CT]/[R0], bound AMH without prodomain, estimate of [RLR]/[R0], at 0.21 nM c-AMH was 0.147; the [CT]/[R0], bound AMH without prodomain, estimate of [RLR]/[R0], at 0.41 nM c-AMH was 0.206; the [CT]/[R0], bound AMH without prodomain, estimate of [RLR]/[R0], at 0.83 nM c-AMH is 0.284. In test [2], the [CT]/[R0], bound AMH without prodomain, estimate of [RLR]/[R0], at 1.65 nM c-AMH was 0.285; the [CT]/[R0], bound AMH without prodomain, estimate of [RLR]/[R0], at 3.30 nM c-AMH is 0.22; the [CT]/[R0], bound AMH without prodomain, estimate of [RLR]/[R0], at 6.60 nM c-AMH is 0.199; the [CT]/[R0], bound AMH without prodomain, estimate of [RLR]/[R0], at 13.21 nM c-AMH was 0.145. For the same substance, in test [2], the [CT]/[R0], bound AMH without prodomain, estimate of [RLR]/[R0], at 26.41 nM c-AMH is 0.094; the [CT]/[R0], bound AMH without prodomain, estimate of [RLR]/[R0], at 52.83 nM c-AMH was 0.086; the [NCT]/[R0], intact AMH complex bound (mAb-N1), estimate of [RL]/[R0], at 0.03 nM c-AMH was 0.013; the [NCT]/[R0], intact AMH complex bound (mAb-N1), estimate of [RL]/[R0], at 0.05 nM c-AMH was 0.021. In test [2], the [NCT]/[R0], intact AMH complex bound (mAb-N1), estimate of [RL]/[R0], at 0.10 nM c-AMH is 0.034; the [NCT]/[R0], intact AMH complex bound (mAb-N1), estimate of [RL]/[R0], at 0.21 nM c-AMH was 0.056; the [NCT]/[R0], intact AMH complex bound (mAb-N1), estimate of [RL]/[R0], at 0.41 nM c-AMH is 0.109; the [NCT]/[R0], intact AMH complex bound (mAb-N1), estimate of [RL]/[R0], at 0.83 nM c-AMH is 0.178. Also, in test [2], the [NCT]/[R0], intact AMH complex bound (mAb-N1), estimate of [RL]/[R0], at 1.65 nM c-AMH is 0.311; the [NCT]/[R0], intact AMH complex bound (mAb-N1), estimate of [RL]/[R0], at 3.30 nM c-AMH was 0.487; the [NCT]/[R0], intact AMH complex bound (mAb-N1), estimate of [RL]/[R0], at 6.60 nM c-AMH is 0.654; the [NCT]/[R0], intact AMH complex bound (mAb-N1), estimate of [RL]/[R0], at 13.21 nM c-AMH was 0.794. For the same substance, in test [2], the [NCT]/[R0], intact AMH complex bound (mAb-N1), estimate of [RL]/[R0], at 26.41 nM c-AMH was 0.871; the [NCT]/[R0], intact AMH complex bound (mAb-N1), estimate of [RL]/[R0], at 52.83 nM c-AMH is 0.941; the [R0]/K2 (second, bivalent binding step; dimensionless) is 6; the [R0]/K2 (second, bivalent binding step; dimensionless; fit of Figure 5C) is 3.7. In addition, in test [2], the [R0]/K2 (second, bivalent binding step; dimensionless; fit of Figure 5D) was found to be 4.9; the [RL+2RLR]/[R0], fraction-receptor occupancy, at 0.03 nM c-AMH worked out at 0.103; the [RL+2RLR]/[R0], fraction-receptor occupancy, at 0.05 nM c-AMH stood at 0.163; the [RL+2RLR]/[R0], fraction-receptor occupancy, at 0.10 nM c-AMH is 0.254. Besides, in test [2], the [RL+2RLR]/[R0], fraction-receptor occupancy, at 0.21 nM c-AMH turned out to be 0.386; the [RL+2RLR]/[R0], fraction-receptor occupancy, at 0.41 nM c-AMH was 0.538; the [RL+2RLR]/[R0], fraction-receptor occupancy, at 0.83 nM c-AMH was 0.654; the [RL+2RLR]/[R0], fraction-receptor occupancy, at 1.65 nM c-AMH is 0.789. In test [2], the [RL+2RLR]/[R0], fraction-receptor occupancy, at 3.30 nM c-AMH is 0.834; the [RL+2RLR]/[R0], fraction-receptor occupancy, at 6.60 nM c-AMH stood at 0.917; the [RL+2RLR]/[R0], fraction-receptor occupancy, at 13.21 nM c-AMH was 0.951; the [RL+2RLR]/[R0], fraction-receptor occupancy, at 26.41 nM c-AMH was 0.989. Further, in test [2], the [RL+2RLR]/[R0], fraction-receptor occupancy, at 52.83 nM c-AMH turned out to be 1; the [RL+RLR]/[R0], fraction-maximal AMH binding, at 0.03 nM c-AMH came to 0.043; the [RL+RLR]/[R0], fraction-maximal AMH binding, at 0.05 nM c-AMH came out at 0.088; the [RL+RLR]/[R0], fraction-maximal AMH binding, at 0.10 nM c-AMH is 0.125. In addition, in test [2], the [RL+RLR]/[R0], fraction-maximal AMH binding, at 0.21 nM c-AMH was found to be 0.203; the [RL+RLR]/[R0], fraction-maximal AMH binding, at 0.41 nM c-AMH was determined as 0.315; the [RL+RLR]/[R0], fraction-maximal AMH binding, at 0.83 nM c-AMH came to 0.463; the [RL+RLR]/[R0], fraction-maximal AMH binding, at 1.65 nM c-AMH was found to be 0.596. In test [2], this substance displayed a [RL+RLR]/[R0], fraction-maximal AMH binding, at 3.30 nM c-AMH of 0.707; a [RL+RLR]/[R0], fraction-maximal AMH binding, at 6.60 nM c-AMH of 0.854; a [RL+RLR]/[R0], fraction-maximal AMH binding, at 13.21 nM c-AMH of 0.94; a [RL+RLR]/[R0], fraction-maximal AMH binding, at 26.41 nM c-AMH of 0.965. Besides, the [RL+RLR]/[R0], fraction-maximal AMH binding, at 52.83 nM c-AMH in test [2] stood at 1.03.
Regarding “activin A prodomain prodomain (from UniProt P08476)”, the Kd in test [3] was 5 nM.
Consider “anti-Müllerian hormone prodomain (N-terminal prodomain of c-AMH) (domain or fragment)”, for which, in test [4], the Kd is 0.0004 nM and the intact complex left after 10 days at 8.8 pM, percent of samples diluted immediately before the assay is 80%. For the same substance, in test [5], the KT (apparent dissociation constant of the receptor-bound AMH complex, at [R0] = 100 pM), at 0.03 nM c-AMH came out at 7.5 pM; the KT (apparent dissociation constant of the receptor-bound AMH complex, at [R0] = 100 pM), at 0.05 nM c-AMH was found to be 22.1 pM; the KT (apparent dissociation constant of the receptor-bound AMH complex, at [R0] = 100 pM), at 0.10 nM c-AMH came out at 24.3 pM; the KT (apparent dissociation constant of the receptor-bound AMH complex, at [R0] = 100 pM), at 0.21 nM c-AMH was determined as 36.6 pM. For the same substance, in test [5], the KT (apparent dissociation constant of the receptor-bound AMH complex, at [R0] = 100 pM), at 0.41 nM c-AMH was found to be 38.7 pM; the KT (apparent dissociation constant of the receptor-bound AMH complex, at [R0] = 100 pM), at 0.83 nM c-AMH amounted to 45.3 pM; the KT (apparent dissociation constant of the receptor-bound AMH complex, at [R0] = 100 pM), at 1.65 nM c-AMH was found to be 26.2 pM; the KT (apparent dissociation constant of the receptor-bound AMH complex, at [R0] = 100 pM), at 3.30 nM c-AMH amounted to 10 pM. For the same substance, in test [5], the KT (apparent dissociation constant of the receptor-bound AMH complex, at [R0] = 100 pM), at 6.60 nM c-AMH was determined as 6.1 pM; the KT (apparent dissociation constant of the receptor-bound AMH complex, at [R0] = 100 pM), at 13.21 nM c-AMH amounted to 2.7 pM; the KT (apparent dissociation constant of the receptor-bound AMH complex, at [R0] = 100 pM), at 26.41 nM c-AMH; taken as a measure of K mono is 1 pM; the KT (apparent dissociation constant of the receptor-bound AMH complex, at [R0] = 100 pM), at 52.83 nM c-AMH; taken as a measure of K mono turned out to be 0.8 pM. In addition, in test [5], the [NCT]/[RL + RLR], fraction-intact AMH complex, at 0.03 nM c-AMH was 0.29; the [NCT]/[RL + RLR], fraction-intact AMH complex, at 0.05 nM c-AMH was 0.234; the [NCT]/[RL + RLR], fraction-intact AMH complex, at 0.10 nM c-AMH amounted to 0.271; the [NCT]/[RL + RLR], fraction-intact AMH complex, at 0.21 nM c-AMH amounted to 0.276. Also, in test [5], the [NCT]/[RL + RLR], fraction-intact AMH complex, at 0.41 nM c-AMH was found to be 0.347; the [NCT]/[RL + RLR], fraction-intact AMH complex, at 0.83 nM c-AMH was found to be 0.386; the [NCT]/[RL + RLR], fraction-intact AMH complex, at 1.65 nM c-AMH came to 0.521; the [NCT]/[RL + RLR], fraction-intact AMH complex, at 3.30 nM c-AMH stood at 0.688. Besides, in test [5], the [NCT]/[RL + RLR], fraction-intact AMH complex, at 6.60 nM c-AMH stood at 0.767; the [NCT]/[RL + RLR], fraction-intact AMH complex, at 13.21 nM c-AMH was 0.845; the [NCT]/[RL + RLR], fraction-intact AMH complex, at 26.41 nM c-AMH turned out to be 0.903; the [NCT]/[RL + RLR], fraction-intact AMH complex, at 52.83 nM c-AMH turned out to be 0.917.
